The experiment addresses pre-anti-drug antibodies (pre-ADAs) in individual serum samples taken from healthy humans. Nature of the experiment: ELISA, coated sdAb, 40 healthy donor sera (1:5), anti-human lambda chain-HRP, OD415.

B1: P2-2 (protein)
VH: HHHHHHGGGGSEVQLLESGGGLVQPGGSLRLSCAASGFTFAHETMVWVRQAPGKGLEWVSHIPPDGQDPFYADSVKGRFTISRDNSKNTLYLQMNSLRAEDTAVYHCALLPKRGPWFDYWGQGTLVTVSSA
In the case of B1, the percent of serum samples with detectable sdAb-reactive pre-ADAs came to 12.5%.

B2: P2-1 (protein)
VH: HHHHHHGGGGSEVQLLESGGGLVQPGGSLRLSCAASGFTFAHETMVWVRQAPGKGLEWVSHIPPDGQDPFYADSVKGRFTISRDNSKNTLYLQMNSLRAEDTAVYHCALLPKRGPWFDYWGQGTLVTVSS
As for B2, the percent of serum samples with detectable sdAb-reactive pre-ADAs amounted to 57.5%.

The values above are taken from US20250026842A1.
